Data from paper PMC12607630.
Several values for one entry are separate records, joined by “and”; a condition that tells them apart may be missing. Identical values can stand only once.

Target: 6×His-SUMO-FtsZ 370-383 (Escherichia coli) (UniProt P0A9A6)
Experiment: BLI; 6×His-SUMO fusions of FtsZ or its parts, or SUMO alone (0.5 µM), held on Ni-NTA biosensors, untagged ZapC in solution; Octet-Red96, 30°C, 1× Pol buffer (50 mM HEPES-NaOH pH 6.8, 50 mM KCl, 10 mM MgCl2); apparent Kd from the signal at the end of association against concentration, one-site fit; three repeats with mean (X) and SD

Kd: 10.2 µM and 8.06 µM and 9.89 µM
Substance: ZapC (untagged) (from UniProt P75862 1-180) (natural protein)
